Reference: the supplement of paper PMC9112550, “Optimization of the antimicrobial peptide Bac7 by deep mutational scanning” (BMC Biology, 2022)

Tested on: Escherichia coli TOP10
Test: shrunken log2 fold change of peptide-encoding DNA abundance (4.5 h post-induction vs induction); higher = less antimicrobial activity (less host growth inhibition)
Settings: time post-induction: 4.5 h; library: site-saturation at positions 5, 18, 19, 20
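Note: peptides expressed intracellularly from a pBAD plasmid library in pooled LB shake-flask culture, induced with 0.3% L-arabinose, DNA abundance read by NGS, three biological replicates, DESeq2 with apeglm shrinkage.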

Sequence	shrunken log2 fold change
RRIRHRPPRLPRPRPRPVIIPRP	-0.248
RRIRIRPPRLPRPRPRPVLVPRP	0.0259
RRIRKRPPRLPRPRPRPTGAPRP	1.09
RRIRMRPPRLPRPRPRPPYNPRP	-0.575
RRIRYRPPRLPRPRPRPVCFPRP	-0.674
RRIRCRPPRLPRPRPRPIYFPRP	-0.131
RRIRIRPPRLPRPRPRPCAFPRP	-0.1
RRIRPRPPRLPRPRPRPNMLPRP	-0.367
RRIRWRPPRLPRPRPRPDQAPRP	0.11
RRIRTRPPRLPRPRPRPCFIPRP	-1.05
RRIRFRPPRLPRPRPRPSWAPRP	-0.308
RRIRRRPPRLPRPRPRPQIHPRP	-0.515
RRIRHRPPRLPRPRPRPCSVPRP	-0.00861
RRIRCRPPRLPRPRPRPAWFPRP	0.194
RRIRHRPPRLPRPRPRPVHEPRP	-0.0609
RRIRWRPPRLPRPRPRPTNYPRP	-0.347
RRIRNRPPRLPRPRPRPKTKPRP	-0.0202
RRIRYRPPRLPRPRPRPKDMPRP	0.0203
RRIRLRPPRLPRPRPRPHDKPRP	0.0709
RRIRVRPPRLPRPRPRPMAWPRP	-0.114
RRIRERPPRLPRPRPRPRAQPRP	0.22
RRIRQRPPRLPRPRPRPMQYPRP	-0.309
RRIRGRPPRLPRPRPRPKTNPRP	0.779
RRIRHRPPRLPRPRPRPNWFPRP	-0.0203
RRIRARPPRLPRPRPRPSIWPRP	0.352

Sequence	shrunken log2 fold change
RRIRNRPPRLPRPRPRPHDTPRP	-0.267
RRIRCRPPRLPRPRPRPPPVPRP	1.24
RRIRPRPPRLPRPRPRPHTMPRP	-0.143
RRIRKRPPRLPRPRPRPKQQPRP	0.0737
RRIRNRPPRLPRPRPRPSHGPRP	0.108
RRIRDRPPRLPRPRPRPEFVPRP	0.204
RRIRMRPPRLPRPRPRPWLEPRP	-0.00871
RRIRPRPPRLPRPRPRPYSVPRP	-1.01
RRIRPRPPRLPRPRPRPITHPRP	-0.117
RRIRERPPRLPRPRPRPIREPRP	0.0256
RRIRIRPPRLPRPRPRPVYVPRP	-1.58
RRIRQRPPRLPRPRPRPTVIPRP	-0.0817
RRIRQRPPRLPRPRPRPVWGPRP	0.225
RRIRDRPPRLPRPRPRPFSSPRP	-0.0177
RRIRRRPPRLPRPRPRPKCFPRP	0.445
RRIRSRPPRLPRPRPRPLAKPRP	0.358
RRIRDRPPRLPRPRPRPWVIPRP	-0.00136
RRIRGRPPRLPRPRPRPNPDPRP	0.221
RRIRCRPPRLPRPRPRPRFVPRP	0.15
RRIRSRPPRLPRPRPRPPPHPRP	0.752
RRIRQRPPRLPRPRPRPIFAPRP	0.146
RRIRVRPPRLPRPRPRPVENPRP	0.02
RRIRSRPPRLPRPRPRPCYDPRP	-0.438
RRIRERPPRLPRPRPRPAMIPRP	-0.0554
RRIRGRPPRLPRPRPRPIAWPRP	1.05

Sequence	shrunken log2 fold change
RRIRWRPPRLPRPRPRPWHNPRP	-0.203
RRIRARPPRLPRPRPRPVVCPRP	0.224
RRIRTRPPRLPRPRPRPPVCPRP	0.713
RRIRWRPPRLPRPRPRPHADPRP	0.708
RRIRGRPPRLPRPRPRPIALPRP	0.16
RRIRQRPPRLPRPRPRPDLVPRP	-0.0031
RRIRGRPPRLPRPRPRPCYYPRP	-0.00676
RRIRQRPPRLPRPRPRPSDWPRP	-0.131
RRIRDRPPRLPRPRPRPEVQPRP	0.988
RRIRFRPPRLPRPRPRPRVGPRP	0.24
RRIRIRPPRLPRPRPRPASAPRP	0.613
RRIRWRPPRLPRPRPRPNAQPRP	-0.0306
RRIRSRPPRLPRPRPRPCHTPRP	0.00383
RRIRNRPPRLPRPRPRPEHQPRP	-0.029
RRIRVRPPRLPRPRPRPSLIPRP	-0.238
RRIRARPPRLPRPRPRPLEKPRP	0.439
RRIRGRPPRLPRPRPRPSVCPRP	0.159
RRIRGRPPRLPRPRPRPGQLPRP	0.178
RRIRVRPPRLPRPRPRPIVCPRP	-0.0744
RRIRWRPPRLPRPRPRPQSGPRP	0.186
RRIRMRPPRLPRPRPRPVLWPRP	0.847
RRIRNRPPRLPRPRPRPCVMPRP	0.0192
RRIRVRPPRLPRPRPRPIQFPRP	-0.0307
RRIRKRPPRLPRPRPRPADRPRP	0.102
RRIRSRPPRLPRPRPRPRRPPRP	0.364

Sequence	shrunken log2 fold change
RRIRARPPRLPRPRPRPTCSPRP	0.483
RRIRWRPPRLPRPRPRPNRWPRP	0.218
RRIRYRPPRLPRPRPRPCCRPRP	-0.732
RRIRYRPPRLPRPRPRPAHMPRP	-0.015
RRIRSRPPRLPRPRPRPATHPRP	-0.0838
RRIRARPPRLPRPRPRPNNHPRP	-0.381
RRIRGRPPRLPRPRPRPEEAPRP	2.32
RRIRMRPPRLPRPRPRPRIAPRP	0.786
RRIRYRPPRLPRPRPRPPRRPRP	0.261
RRIRCRPPRLPRPRPRPAAPPRP	0.668
RRIRPRPPRLPRPRPRPVRGPRP	0.898
RRIRHRPPRLPRPRPRPTSDPRP	-0.302
RRIRARPPRLPRPRPRPMSRPRP	-0.171
RRIRIRPPRLPRPRPRPNASPRP	0.109
RRIRFRPPRLPRPRPRPHSDPRP	-0.129
RRIRMRPPRLPRPRPRPRITPRP	0.122
RRIRDRPPRLPRPRPRPNNEPRP	-0.526
RRIRGRPPRLPRPRPRPSSAPRP	0.592
RRIRTRPPRLPRPRPRPNKKPRP	-0.26
RRIRERPPRLPRPRPRPYLEPRP	-0.271
RRIRARPPRLPRPRPRPGHMPRP	-0.0412
RRIRVRPPRLPRPRPRPQLRPRP	0.0648
RRIRQRPPRLPRPRPRPSLTPRP	0.133
RRIRLRPPRLPRPRPRPMWNPRP	-0.299
RRIRLRPPRLPRPRPRPNCKPRP	-0.143

Sequence	shrunken log2 fold change
RRIRWRPPRLPRPRPRPHTLPRP	-0.325
RRIRSRPPRLPRPRPRPCFCPRP	-0.489
RRIRKRPPRLPRPRPRPCECPRP	0.62
RRIRNRPPRLPRPRPRPHKCPRP	-0.0755
RRIRDRPPRLPRPRPRPSTQPRP	0.445
RRIRKRPPRLPRPRPRPGIVPRP	0.0403
RRIRIRPPRLPRPRPRPVYYPRP	-1.62
RRIRARPPRLPRPRPRPAPHPRP	0.814
RRIRKRPPRLPRPRPRPHPPPRP	1.27
RRIRERPPRLPRPRPRPFAGPRP	-1.68
RRIRPRPPRLPRPRPRPWMHPRP	0.0123
RRIRVRPPRLPRPRPRPETYPRP	-0.316
RRIRNRPPRLPRPRPRPCGYPRP	0.019
RRIRERPPRLPRPRPRPPCKPRP	-0.208
RRIRPRPPRLPRPRPRPMRPPRP	1.04
RRIRDRPPRLPRPRPRPWHVPRP	0.015
RRIRKRPPRLPRPRPRPEKDPRP	0.518
RRIRSRPPRLPRPRPRPWDSPRP	-0.729
RRIRLRPPRLPRPRPRPPDYPRP	-0.199
RRIRGRPPRLPRPRPRPQEWPRP	0.12
RRIRSRPPRLPRPRPRPMEFPRP	0.00489
RRIRERPPRLPRPRPRPLNGPRP	-0.254
RRIRARPPRLPRPRPRPSCSPRP	0.0274
RRIRERPPRLPRPRPRPGWKPRP	0.015
RRIRKRPPRLPRPRPRPRGHPRP	0.189

Sequence	shrunken log2 fold change
RRIRDRPPRLPRPRPRPNFEPRP	0.282
RRIRKRPPRLPRPRPRPTPGPRP	0.683
RRIRHRPPRLPRPRPRPACMPRP	0.0463
RRIRMRPPRLPRPRPRPQDWPRP	0.00698
RRIRFRPPRLPRPRPRPQIEPRP	-0.24
RRIRERPPRLPRPRPRPADAPRP	0.117
RRIRFRPPRLPRPRPRPAANPRP	0.22
RRIRVRPPRLPRPRPRPHPGPRP	-0.325
RRIRSRPPRLPRPRPRPAHLPRP	0.27
RRIRYRPPRLPRPRPRPTMYPRP	-0.33
RRIRQRPPRLPRPRPRPPYGPRP	-0.408
RRIRSRPPRLPRPRPRPKDDPRP	0.0557
RRIRKRPPRLPRPRPRPSLFPRP	0.125
RRIRERPPRLPRPRPRPNWMPRP	-0.24
RRIRHRPPRLPRPRPRPYRYPRP	-0.177
RRIRYRPPRLPRPRPRPYCMPRP	-0.918
RRIRSRPPRLPRPRPRPFQKPRP	-0.00295
RRIRNRPPRLPRPRPRPPIIPRP	-0.192
RRIRERPPRLPRPRPRPAAIPRP	-0.215
RRIRHRPPRLPRPRPRPQPAPRP	-0.0767
RRIRIRPPRLPRPRPRPTSDPRP	-0.245
RRIRTRPPRLPRPRPRPPSPPRP	0.236
RRIRSRPPRLPRPRPRPEQSPRP	0.22
RRIRARPPRLPRPRPRPHPCPRP	0.206
RRIRDRPPRLPRPRPRPKCNPRP	-0.13
